Laboratory results as given in US20120172298A1, “GLP-1 AND FGF21 COMBINATIONS FOR TREATMENT OF DIABETES TYPE 2” (Novo Nordisk A/S, priority 2009, published 2012).
Where “and” joins values, the source holds several entries; their conditions need not be identical. Equal values may be shown once.

Tests used:
db/db mice = assay: Effect on blood glucose in vivo, acute study in db/db mice; conditions: compound F1 0.125 mg/kg s.c. 1 × daily for 3 days and/or compound G4 1 nmol/kg s.c. one hour after last FGF21 dose, 0-48 hours post GLP-1 dose
Protocol: This acute in vivo study investigates the effect of FGF21 and GLP-1 compounds on blood glucose levels of db/db mice.
The db/db mouse is a hyperglycaemic, hyperinsulinaemic, hyperphagic and obese model of type 2 diabetes.
23 db/db mice (Male, C57BLKS db/db, from Taconic, Denmark, 15-16 weeks of age).
Dosed subcutaneously 1 × daily with 0.125 mg/kg human FGF21 (n=11) (compound F1) or vehicle (n=12) for 3 days. Vehicle was sterile PBS-buffer (DPBS, Gibco, cat. no. 14190).
Both groups of animals were then dosed with either vehicle or GLP-1 compound G4 at 1 nmol/kg (n=5-6). The G4 compound is a GLP-1 analogue which has an extended half-life due to its derivatisation with an albumin binder. The GLP-1 or vehicle dose was given subcutaneously one hour after the last FGF21 or vehicle dose.
Blood samples of 10 μl were taken from the tip of the tail for the measurement of blood glucose from 0-48 hours post dose of the GLP-1 compound.
Results were analysed using the area under the glucose curve (AUC) for the vehicle group, the GLP-1 group, the FGF21 group and the combined group.
The expected AUC was calculated using the following formula: […]
AUCvehicle−((AUCvehicle−AUCFGF212)+(AUCvehicle−AUCGLP-1))

[1] = test system: pancreatic islets from diabetic db/db mice; assay: Restoration of glucose stimulated insulin release ex vivo (islet perifusion); assay type: cell-based; design: AUC for time 35-75 minutes (glucose response), single repetitions / AUC for time 75-140 minutes (forskolin response), single repetitions: unit not given here; conditions: for insulin release: mean +/- SEM
Protocol: This ex vivo example investigates the ability of pancreatic islets from diabetic db/db mice to restore, in response to treatment with FGF21 and GLP-1 compounds, the ability to release insulin in response to glucose stimulation.
Islets from 25 db/db mice (Charles River), 15 weeks of age, were isolated according to the following procedure:
Animals were killed by cervical dislocation and fixated with pins on a Styrofoam plate. Pancreata were removed and transferred to a Packard vial containing 5 ml collagenase (Life Science, grade II, cat. no. 100502) 300 units/ml (one pancreas/vial) which was kept on ice until all pancreata were removed. Then the pancreata were shaken in the Grant/Edmund S25 thermoshaker at 200 strokes/min. at 37° C. for 5 min. The tissue was transferred to a fresh vial containing 5 ml 150 units/ml collagenase (supernatant was discarded) and shaken again in the thermoshaker for 5 min. The tissue was further shaken 3-5 min. on the thermoshaker, and thereafter all shaking is done by hand for 5-10 sec. each time. These steps were repeated until all tissue was digested. The process was followed continuously under the stereomicroscope and once digested the tissue was pooled and collected in progressively fewer tubes. All supernatants were washed 3 times in HBSS+0.5% NCS (HBSS (10×) from Gibco, cat. no. 14060, is diluted 10× in H2O before use, Newborn Calf Serum (NCS) from Gibco, cat. no. 26010-066), allowed to sediment for 5 min. between each wash, and left on ice, following which the islets were ready for picking. Islets were purified by transferring a little bit of supernatant to a Petri dish, filling up with HBSS+NCS and subsequently transferring (by mouth pipetting) with a constriction pipette to a new Petri dish. From there the islet were re-picked until pure, and then incubated in RPMI 1640 medium (Gibco, cat no 61870-010)+10% NCS at 37° C.
After incubation, the islets were washed in Krebs Ringer solution (115 mM NaCl, 4.7 mM KCl, 2.6 mM CaCl2, 1.2 mM KH2PO4, 1.2 mM MgSO4, 10 mM HEPES, 0.2% BSA, 2 mM glutamine, 5 mM NaHCO3, pH 7.4) and subsequently used in an islet perifusion experiment (Suprafusion 2500 from Brandel). For each of the three preincubation conditions four perifusion columns each with 60 islets were used. The islets were placed in Bio-gel P2 (Bio-Rad. cat. no. 150-4114) in the columns with a nylon mesh below and above the gel. The islets were initially perifused for 40 minutes with Krebs Ringer solution containing 3 mM glucose to obtain a stable baseline of insulin release. After 40 minutes the buffer was exchanged to 15 mM glucose for 30 minutes (time 40-70 min). Then the buffer was exchanged to 15 mM glucose containing 10 μM forskolin (Tocris 1099, batch 3A/86008) for 40 minutes (time 70-110 min). Finally the buffer was exchanged to low glucose (3 mM) for 30 minutes (time 110-140 min). The buffer was set to flow through the perifusion system at a rate of 0.3 ml/minute. Samples were taken every 5 minutes from time 30 to 140 min. Samples were stored at −20° C. and subsequently analysed for insulin, essentially as described by Poulsen et al. in Journal of Biomolecular Screening 12(X); p. 1-8, 2007 (LOCI (Luminescent Oxygen Channeling Immunoassay) sandwich immunoassay).
The results (ng/ml insulin) are shown in Table 1 below as mean+/−standard error of mean (SEM). The figures for the control and the FGF21 compound are based on three repetitions (due to problems with one of the four columns in these two experiments), while the figures for the GLP-1 compound are based on four repetitions.
The corresponding Area Under the Curve (designated AUC) figures were also calculated, and for the statistics the Student's T-test was used.

[2] = insulin AUC per perifusion column, FGF21 = 50 nM Compound F1, GLP-1 = 100 nM Compound G3

B1: Met-FGF21_human (protein, listed as Homo sapiens)
chain: HPIPDSSPLLQFGGQVRQRYLYTDDAQQTEAHLEIREDGTVGGAADQSPESLLQLKALKPGVIQILGVKTSRFLCQRPDGALYGSLHFDPEACSFRELLLEDGYNVYQSEAHGLPLHLPGNKSPHRDPAPRGPARFLPLPGLPPALPEPPGILAPQPPDVGSSDPLSMVGPSQGRSPSYAS
modifications: N-terminal Met; mat_peptide (1)..(181); DISULFID (75)..(93)
Question: Which “Glucose lowering capacity (AUC), blood glucose AUC0-48 h, mean” value (db/db mice) does the source give for B1 here?
Answer: The value was 389.8 mM·min.

Question: And the “restoration of glucose stimulated insulin release ex vivo” value ([1]; db/db mice pancreatic islets, Table 2 results, F1 50 nM, G3 100 nM)?
Answer: Its value is “capable of restoring glucose stimulated insulin release”.

Question: And the “AUC for time 35-75 minutes (glucose response), single repetitions” value [1, 2]?
Answer: Its value is 521.2 and 514.5 and 359.9.

Question: And the “AUC for time 75-140 minutes (forskolin response), single repetitions” value [1, 2]?
Answer: The value was 5402 and 4177 and 5832.

Question: And the “AUC for time 75-140 minutes (forskolin response), mean” value ([1]; insulin AUC, FGF21 = 50 nM Compound F1, GLP-1 = 100 nM Compound G3, * FGF21 vs GLP-1)?
Answer: Its value is “(mean 5137*)”.

Question: What about the “AUC for time 35-75 minutes (glucose response), mean” value ([1]; insulin AUC, FGF21 = 50 nM Compound F1, GLP-1 = 100 nM Compound G3, ** vs control) of the same molecule?
Answer: Its value is “(mean 465.2**)”.

Question: What about the insulin release ([1]; time 35 min, 3 mM glucose, islets preincubated 48 h with 50 nM Compound F1 or 100 nM Compound G3) of the same molecule?
Answer: Its insulin release is 0.92 ± 0.10 ng/mL.

Question: What about the insulin release ([1]; time 40 min, 3 mM glucose, preincubation 48 h 50 nM F1 or 100 nM G3) of the same molecule?
Answer: The insulin release was 0.71 ± 0.06 ng/mL.

Question: What about the insulin release ([1]; time 45 min, 15 mM glucose, preincubation 48 h 50 nM F1 or 100 nM G3) of the same molecule?
Answer: The insulin release was 0.68 ± 0.04 ng/mL.

Question: What about the insulin release ([1]; time 50 min, 15 mM glucose, preincubation 48 h 50 nM F1 or 100 nM G3) of the same molecule?
Answer: The insulin release was 19.56 ± 6.74 ng/mL.

Question: What about the insulin release ([1]; time 55 min, 15 mM glucose, preincubation 48 h 50 nM F1 or 100 nM G3) of the same molecule?
Answer: Its insulin release is 28.33 ± 2.09 ng/mL.

Question: What about the insulin release ([1]; time 60 min, 15 mM glucose, preincubation 48 h 50 nM F1 or 100 nM G3) of the same molecule?
Answer: Its insulin release is 12.07 ± 0.50 ng/mL.

Question: What about the insulin release ([1]; time 65 min, 15 mM glucose, preincubation 48 h 50 nM F1 or 100 nM G3) of the same molecule?
Answer: The insulin release was 11.13 ± 0.66 ng/mL.

Question: And the insulin release ([1]; time 70 min, 15 mM glucose, preincubation 48 h 50 nM F1 or 100 nM G3)?
Answer: Its insulin release is 13.37 ± 0.63 ng/mL.

Question: What about the insulin release ([1]; time 75 min, 15 mM glucose + 10 μM forskolin, preincubation 48 h 50 nM F1 or 100 nM G3) of the same molecule?
Answer: The insulin release was 13.47 ± 0.78 ng/mL.

Question: And the insulin release ([1]; time 80 min, 15 mM glucose + 10 μM forskolin, preincubation 48 h 50 nM F1 or 100 nM G3)?
Answer: Its insulin release is 77.17 ± 14.84 ng/mL.

Question: And the insulin release ([1]; time 85 min, 15 mM glucose + 10 μM forskolin, preincubation 48 h 50 nM F1 or 100 nM G3)?
Answer: Its insulin release is 160.00 ± 16.52 ng/mL.

Question: And the insulin release ([1]; time 90 min, 15 mM glucose + 10 μM forskolin, preincubation 48 h 50 nM F1 or 100 nM G3)?
Answer: Its insulin release is 154.00 ± 15.00 ng/mL.

Question: What about the insulin release ([1]; time 95 min, 15 mM glucose + 10 μM forskolin, preincubation 48 h 50 nM F1 or 100 nM G3) of the same molecule?
Answer: The insulin release was 148.33 ± 17.95 ng/mL.

Question: What about the insulin release ([1]; time 100 min, 15 mM glucose + 10 μM forskolin, preincubation 48 h 50 nM F1 or 100 nM G3) of the same molecule?
Answer: Its insulin release is 125.00 ± 17.35 ng/mL.

Question: And the insulin release ([1]; time 105 min, 15 mM glucose + 10 μM forskolin, preincubation 48 h 50 nM F1 or 100 nM G3)?
Answer: Its insulin release is 99.40 ± 11.84 ng/mL.

Question: What about the insulin release ([1]; time 110 min, 15 mM glucose + 10 μM forskolin, preincubation 48 h 50 nM F1 or 100 nM G3) of the same molecule?
Answer: The insulin release was 79.97 ± 8.43 ng/mL.

Question: And the insulin release ([1]; time 115 min, low glucose (3 mM), preincubation 48 h 50 nM F1 or 100 nM G3)?
Answer: The insulin release was 69.63 ± 9.61 ng/mL.

Question: And the insulin release ([1]; time 120 min, low glucose (3 mM), preincubation 48 h 50 nM F1 or 100 nM G3)?
Answer: Its insulin release is 56.23 ± 8.37 ng/mL.

Question: What about the insulin release ([1]; time 125 min, low glucose (3 mM), preincubation 48 h 50 nM F1 or 100 nM G3) of the same molecule?
Answer: The insulin release was 30.03 ± 6.67 ng/mL.

Question: And the insulin release ([1]; time 130 min, low glucose (3 mM), preincubation 48 h 50 nM F1 or 100 nM G3)?
Answer: Its insulin release is 13.16 ± 3.21 ng/mL.

Question: What about the insulin release ([1]; time 135 min, low glucose (3 mM), preincubation 48 h 50 nM F1 or 100 nM G3) of the same molecule?
Answer: The insulin release was 5.76 ± 0.70 ng/mL.

Question: And the insulin release ([1]; time 140 min, low glucose (3 mM), preincubation 48 h 50 nM F1 or 100 nM G3)?
Answer: Its insulin release is 3.92 ± 0.37 ng/mL.
